Reference: PMC9340162, “The Central Circadian Clock Protein TaCCA1 Regulates Seedling Growth and Spike Development in Wheat (Triticum aestivum L.)”
One block for each molecule: values may come before it.

Tests used:
[1] = target: MBP-TaCCA1-7D fusion protein (Triticum aestivum (bread wheat)); assay: BLI; ForteBio Octet RED 96e; streptavidin (SA) biosensors loaded with 10.0 ug/ml biotinylated recombinant TaCCA1-7D; TaCCA1-7A or TaCCA1-7B in solution at 10-630 nM, low to high concentration; KD as the ratio of dissociation and association rate constants
MBP-TaCCA1-7D [2] = target: T1, MBP-TaCCA1-7D (Triticum aestivum, UniProt A0A3B6TKA2 1-718); assay: BLI; single-digit nM per text; exact value in Table S6 not in material; EMSA: 150 ng protein, 2 pM DIG probe, 10 ul, 1 h on ice, 6% PAGE in 0.5x TBE pH 8.0; BLI: Octet RED96e, SA sensors with biotinylated TaCCA1-7D; buffers not stated; conditions: protein: recombinant, tags: MBP (pMAL-c2X, N-terminal), biotinylated for BLI, blunt
MBP-TaCCA1-7D [3] = target: T1, MBP-TaCCA1-7D; assay: BLI; kon 1.35E+05 1/Ms; koff 2.42E-04 1/s; EMSA: 150 ng protein, 2 pM DIG probe, 10 ul, 1 h on ice, 6% PAGE in 0.5x TBE pH 8.0; BLI: Octet RED96e, SA sensors with biotinylated TaCCA1-7D; buffers not stated; conditions: protein: recombinant; tags: MBP (pMAL-c2X, N-terminal); biotinylated for BLI; label: 5' biotin; blunt
[4] = label: 5' biotin (BLI), DIG (EMSA)

T1 sequence (A0A3B6TKA2 entry or part of it): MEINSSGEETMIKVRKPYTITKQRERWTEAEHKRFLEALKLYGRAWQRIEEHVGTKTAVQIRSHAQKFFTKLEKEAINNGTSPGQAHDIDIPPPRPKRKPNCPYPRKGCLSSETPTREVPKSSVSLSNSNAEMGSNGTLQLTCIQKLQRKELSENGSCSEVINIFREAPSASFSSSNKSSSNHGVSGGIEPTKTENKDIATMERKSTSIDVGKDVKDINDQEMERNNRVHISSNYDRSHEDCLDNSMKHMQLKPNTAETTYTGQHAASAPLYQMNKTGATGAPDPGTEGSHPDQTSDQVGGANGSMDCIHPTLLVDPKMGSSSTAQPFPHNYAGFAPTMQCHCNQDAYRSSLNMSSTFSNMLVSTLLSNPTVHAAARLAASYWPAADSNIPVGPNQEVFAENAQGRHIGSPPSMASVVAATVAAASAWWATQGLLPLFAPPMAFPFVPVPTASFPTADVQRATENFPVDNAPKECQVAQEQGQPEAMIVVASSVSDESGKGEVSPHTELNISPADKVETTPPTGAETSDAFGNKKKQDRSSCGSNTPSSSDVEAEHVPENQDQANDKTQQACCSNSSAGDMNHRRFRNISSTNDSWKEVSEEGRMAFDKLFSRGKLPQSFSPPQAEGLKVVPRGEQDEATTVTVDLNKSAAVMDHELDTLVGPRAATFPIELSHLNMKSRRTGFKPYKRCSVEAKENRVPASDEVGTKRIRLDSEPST

- Kd [1]: 3.6 nM
- koff [1]: 0.00133 s⁻¹
- kon [1]: 368000 M⁻¹ s⁻¹
Molecule: TaCCA1-7B (natural protein)

- Kd [1]: 27.8 nM
- koff [1]: 0.0012 s⁻¹
- kon [1]: 43000 M⁻¹ s⁻¹
Molecule: TaCCA1-7A (natural protein)

B1: DAP-3 (TraesCS2B02G491700 promoter) (dsDNA)
DNA 1: CTTCAGATTTGTTGATATTTTCATATTGCAGACAT
DNA 2: ATGTCTGCAATATGAAAATATCAACAAATCTGAAG
- Kd (MBP-TaCCA1-7D [2]; [4]): < 10 nM

B2: DAP-2 (TraesCS1D02G295200 promoter) (dsDNA)
DNA 1: AAATAGAAAATTACTGATATTTCATCCTTGTGTGAT
DNA 2: ATCACACAAGGATGAAATATCAGTAATTTTCTATTT
- Kd (MBP-TaCCA1-7D [2]; [4]): < 10 nM

B3: DAP-4 (TraesCS3B02G186700 promoter) (dsDNA)
DNA 1: AATAGAAAATTACTGATATTTCATCCTTATGAGATT
DNA 2: AATCTCATAAGGATGAAATATCAGTAATTTTCTATT
- Kd (MBP-TaCCA1-7D [2]; label: 5' biotin): < 10 nM

B4: DAP-1 (TraesCS1D02G226100 promoter, CHLG) (dsDNA)
DNA 1: TTATATGCCTATATGATATTATGATTTATTTGGTTT
DNA 2: AAACCAAATAAATCATAATATCATATAGGCATATAA
- Kd (MBP-TaCCA1-7D [3]): 1.79 nM
